Measured values published in patent US20250145711A1 (Janssen / Centocor, published 2025).

Legend:
[1] = biological target: T1, Human CD3 epsilon (CD3ε), on primary human pan T cells (human, UniProt P07766 23-207); test: cell-based or functional assay
[2] = biological target: T1, Human CD3 epsilon (CD3ε), on primary …; test: cell-based or functional assay; remark: listed apart in the source
[3] = biological target: T1, Human CD3 epsilon (CD3ε), on primary …; test: flow cytometry on human T cells, anti-human IgG Fc A647 detection
Outline: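 Cryopreserved primary human pan T cells (50,000/well) incubated 1 hr at 37 °C with serially diluted bispecific antibodies; bound antibody detected with A647 anti-human IgG Fc (2 ug/mL, 30 min on ice). Read by iQue flow cytometry, gated on singlets and SYTOX green-negative live cells; secondary-alone wells as background.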

T1 sequence (P07766 23-207 limits assumed): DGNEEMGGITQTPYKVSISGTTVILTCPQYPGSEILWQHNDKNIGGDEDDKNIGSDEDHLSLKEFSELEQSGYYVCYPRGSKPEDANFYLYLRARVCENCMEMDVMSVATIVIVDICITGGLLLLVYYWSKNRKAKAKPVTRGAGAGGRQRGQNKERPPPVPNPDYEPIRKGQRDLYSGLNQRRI

| Binder | EC50, Cytotoxicity [1] [nM] | H929 Killing EC50 [2] [nM] | EC50 [3] [nM] |
| --- | --- | --- | --- |
| GCDB131 (bispecific antibody, human IgG1, kappa, L234A L235A) heavy: QVQLLQSAAEVKKPGESLKISCKGSGYTFTRSTMHWVRQTPGKGLEWMGYINPSSAYTNYNQKFKDQVTISADKSISTAYLQWSSLKASDTAMYYCARPQVHYDYNGFPYWGQGTLVTVSSASTKGPSVFPLAPSSKSTSGGTAALGCLVKDYFPEPVTVSWNSGALTSGVHTFPAVLQSSGLYSLSSVVTVPSSSLGTQTYICNVNHKPSNTKVDKKVEPKSCDKTHTCPPCPAPEAAGGPSVFLFPPKPKDTLMISRTPEVTCVVVSVSHEDPEVKFNWYVDGVEVHNAKTKPREEQYNSTYRVVSVLTVLHQDWLNGKEYKCKVSNKALPAPIEKTISKAKGQPREPQVYVYPPSREEMTKNQVSLTCLVKGFYPSDIAVEWESNGQPENNYKTTPPVLDSDGSFALVSKLTVDKSRWQQGNVFSCSVMHEALHNHYTQKSLSLSPG light: EIVLTQSPSAMSASVGDRVTITCSASSSVSYMNWYQQKPGKVPKRLIYDSSKLASGVPSRFSGSGSGTEYTLTISSLQPEDFATYYCQQWSRNPPTFGQGTMLEIKRTVAAPSVFIFPPSDEQLKSGTASVVCLLNNFYPREAKVQWKVDNALQSGNSQESVTEQDSKDSTYSLSSTLTLSKADYEKHKVYACEVTHQGLSSPVTKSFNRGEC not shown | 0.0334 |  |  |
| BC3B51 (bispecific antibody, human IgG1, kappa, L234A L235A, IgG1 BCMAxCD3; HC1: CD3B2030-N106Q HL scFv-Fc; also called BC3B51.001; B2030 HL NtoQ) QVQLVQSGAEVKKPGSSVKVSCKASGYTFTRSTMHWVKQAPGQGLEWIGYINPSSAYTNYNQKFQGRVTLTADKSTSTAYMELSSLRSEDTAVYYCASPQVHYDYQGFPYWGQGTLVTVSSGGSEGKSSGSGSESKSTGGSEIVLTQSPATLSASPGERVTLSCSASSSVSYMNWYQQKPGQAPRRWIYDSSKLASGVPARFSGSGSGRDYTLTISSLEPEDFAVYYCQQWSRNPPTFGGGTKVEIKEPKSSDKTHTCPPCPAPEAAGGPSVFLFPPKPKDTLMISRTPEVTCVVVSVSHEDPEVKFNWYVDGVEVHNAKTKPREEQYNSTYRVVSVLTVLHQDWLNGKEYKCKVSNKALPAPIEKTISKAKGQPREPQVYVYPPSREEMTKNQVSLTCLVKGFYPSDIAVEWESNGQPENNYKTTPPVLDSDGSFALVSKLTVDKSRWQQGNVFSCSVMHEALHNHYTQKSLSLSPG heavy: not shown light: EIVLTQSPGTLSLSPGERATLSCRASQSISSSFLTWYQQKPGQAPRLLIYGASSRATGIPDRFSGGGSGTDFTLTISRLEPEDFAVYYCQHYGSSPMYTFGQGTKLEIKRTVAAPSVFIFPPSDEQLKSGTASVVCLLNNFYPREAKVQWKVDNALQSGNSQESVTEQDSKDSTYSLSSTLTLSKADYEKHKVYACEVTHQGLSSPVTKSFNRGEC | 0.0278 | 0.0129 | 1.9 |
| BC3B107 (bispecific antibody, human IgG1, kappa, L234A L235A, IgG1 BCMAxCD3; HC1: CD3B2051-N106A HL scFv-Fc; also called BC3B107.001; B2051 HL NtoA) QVQLVQSGAEVKKPGSSVKVSCKASGYTFTRSTMHWVKQAPGQGLEWMGYINPSSAYTNYNQKFQGRVTLTADKSTSTAYMELSSLRSEDTAVYYCASPQVHYDYAGFPYWGQGTLVTVSSGGSEGKSSGSGSESKSTGGSEIVLTQSPATLSASPGERVTLSCSASSSVSYMNWYQQKPGQAPRRLIYDSSKLASGVPARFSGSGSGRDYTLTISSLEPEDFAVYYCQQWSRNPPTFGGGTKVEIKEPKSSDKTHTCPPCPAPEAAGGPSVFLFPPKPKDTLMISRTPEVTCVVVSVSHEDPEVKFNWYVDGVEVHNAKTKPREEQYNSTYRVVSVLTVLHQDWLNGKEYKCKVSNKALPAPIEKTISKAKGQPREPQVYVYPPSREEMTKNQVSLTCLVKGFYPSDIAVEWESNGQPENNYKTTPPVLDSDGSFALVSKLTVDKSRWQQGNVFSCSVMHEALHNHYTQKSLSLSPG heavy: not shown light: EIVLTQSPGTLSLSPGERATLSCRASQSISSSFLTWYQQKPGQAPRLLIYGASSRATGIPDRFSGGGSGTDFTLTISRLEPEDFAVYYCQHYGSSPMYTFGQGTKLEIKRTVAAPSVFIFPPSDEQLKSGTASVVCLLNNFYPREAKVQWKVDNALQSGNSQESVTEQDSKDSTYSLSSTLTLSKADYEKHKVYACEVTHQGLSSPVTKSFNRGEC | 0.0415 | 0.0415 | 8.6 |
| BC3B104 (bispecific antibody, human IgG1, kappa, L234A L235A, IgG1 BCMAxCD3; HC1: CD3B2030-N106G HL scFv-Fc; also called BC3B104.001; B2030 HL NtoG) QVQLVQSGAEVKKPGSSVKVSCKASGYTFTRSTMHWVKQAPGQGLEWIGYINPSSAYTNYNQKFQGRVTLTADKSTSTAYMELSSLRSEDTAVYYCASPQVHYDYGGFPYWGQGTLVTVSSGGSEGKSSGSGSESKSTGGSEIVLTQSPATLSASPGERVTLSCSASSSVSYMNWYQQKPGQAPRRWIYDSSKLASGVPARFSGSGSGRDYTLTISSLEPEDFAVYYCQQWSRNPPTFGGGTKVEIKEPKSSDKTHTCPPCPAPEAAGGPSVFLFPPKPKDTLMISRTPEVTCVVVSVSHEDPEVKFNWYVDGVEVHNAKTKPREEQYNSTYRVVSVLTVLHQDWLNGKEYKCKVSNKALPAPIEKTISKAKGQPREPQVYVYPPSREEMTKNQVSLTCLVKGFYPSDIAVEWESNGQPENNYKTTPPVLDSDGSFALVSKLTVDKSRWQQGNVFSCSVMHEALHNHYTQKSLSLSPG heavy: not shown light: EIVLTQSPGTLSLSPGERATLSCRASQSISSSFLTWYQQKPGQAPRLLIYGASSRATGIPDRFSGGGSGTDFTLTISRLEPEDFAVYYCQHYGSSPMYTFGQGTKLEIKRTVAAPSVFIFPPSDEQLKSGTASVVCLLNNFYPREAKVQWKVDNALQSGNSQESVTEQDSKDSTYSLSSTLTLSKADYEKHKVYACEVTHQGLSSPVTKSFNRGEC | 0.237 | 0.237 | 64.2 |
| BC3B103 (bispecific antibody, human IgG1, kappa, L234A L235A, IgG1 BCMAxCD3; HC1: CD3B2030-N106A HL scFv-Fc; also called BC3B103.001; B2030 HL NtoA) QVQLVQSGAEVKKPGSSVKVSCKASGYTFTRSTMHWVKQAPGQGLEWIGYINPSSAYTNYNQKFQGRVTLTADKSTSTAYMELSSLRSEDTAVYYCASPQVHYDYAGFPYWGQGTLVTVSSGGSEGKSSGSGSESKSTGGSEIVLTQSPATLSASPGERVTLSCSASSSVSYMNWYQQKPGQAPRRWIYDSSKLASGVPARFSGSGSGRDYTLTISSLEPEDFAVYYCQQWSRNPPTFGGGTKVEIKEPKSSDKTHTCPPCPAPEAAGGPSVFLFPPKPKDTLMISRTPEVTCVVVSVSHEDPEVKFNWYVDGVEVHNAKTKPREEQYNSTYRVVSVLTVLHQDWLNGKEYKCKVSNKALPAPIEKTISKAKGQPREPQVYVYPPSREEMTKNQVSLTCLVKGFYPSDIAVEWESNGQPENNYKTTPPVLDSDGSFALVSKLTVDKSRWQQGNVFSCSVMHEALHNHYTQKSLSLSPG heavy: not shown light: EIVLTQSPGTLSLSPGERATLSCRASQSISSSFLTWYQQKPGQAPRLLIYGASSRATGIPDRFSGGGSGTDFTLTISRLEPEDFAVYYCQHYGSSPMYTFGQGTKLEIKRTVAAPSVFIFPPSDEQLKSGTASVVCLLNNFYPREAKVQWKVDNALQSGNSQESVTEQDSKDSTYSLSSTLTLSKADYEKHKVYACEVTHQGLSSPVTKSFNRGEC | 0.0921 | 0.0921 | 4.6 |
| BC3B105 (bispecific antibody, human IgG1, kappa, L234A L235A, IgG1 BCMAxCD3; HC1: CD3B2030-N106S HL scFv-Fc; also called BC3B105.001; B2030 HL NtoS) QVQLVQSGAEVKKPGSSVKVSCKASGYTFTRSTMHWVKQAPGQGLEWIGYINPSSAYTNYNQKFQGRVTLTADKSTSTAYMELSSLRSEDTAVYYCASPQVHYDYSGFPYWGQGTLVTVSSGGSEGKSSGSGSESKSTGGSEIVLTQSPATLSASPGERVTLSCSASSSVSYMNWYQQKPGQAPRRWIYDSSKLASGVPARFSGSGSGRDYTLTISSLEPEDFAVYYCQQWSRNPPTFGGGTKVEIKEPKSSDKTHTCPPCPAPEAAGGPSVFLFPPKPKDTLMISRTPEVTCVVVSVSHEDPEVKFNWYVDGVEVHNAKTKPREEQYNSTYRVVSVLTVLHQDWLNGKEYKCKVSNKALPAPIEKTISKAKGQPREPQVYVYPPSREEMTKNQVSLTCLVKGFYPSDIAVEWESNGQPENNYKTTPPVLDSDGSFALVSKLTVDKSRWQQGNVFSCSVMHEALHNHYTQKSLSLSPG heavy: not shown light: EIVLTQSPGTLSLSPGERATLSCRASQSISSSFLTWYQQKPGQAPRLLIYGASSRATGIPDRFSGGGSGTDFTLTISRLEPEDFAVYYCQHYGSSPMYTFGQGTKLEIKRTVAAPSVFIFPPSDEQLKSGTASVVCLLNNFYPREAKVQWKVDNALQSGNSQESVTEQDSKDSTYSLSSTLTLSKADYEKHKVYACEVTHQGLSSPVTKSFNRGEC | 0.172 | 0.172 | 20.7 |
